In patent US20190100594A1 (INHIBRX, published 2019):
Read-outs that look alike come from different tables or passages of the source. Blank lines part the entries; values can stand above or below the binder they belong to.

Columns and labels:
[1] = biological target: T1, GITR expressed on CHO cells (Homo sapiens (Human), UniProt Q9Y5U5 26-241); assay: flow cytometry on GITR-expressing CHO cells, MFI-FL4
T1 construct: also called glucocorticoid-induced TNFR-related protein; TNFRSF18
T1 sequence: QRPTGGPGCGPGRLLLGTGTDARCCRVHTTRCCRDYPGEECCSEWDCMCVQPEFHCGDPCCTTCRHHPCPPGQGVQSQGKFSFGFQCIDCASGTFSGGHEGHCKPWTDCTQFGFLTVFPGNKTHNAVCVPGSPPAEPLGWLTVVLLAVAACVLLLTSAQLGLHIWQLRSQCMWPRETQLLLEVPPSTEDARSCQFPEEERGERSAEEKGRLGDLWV

[2] = biological target: T1, GITR expressed on CHO cells; assay: flow cytometry competition on GITR-expressing CHO cells; blocked ligand recombinant GITRL; readout GITRL bound, MFI-FL1
Excerpt: Briefly, in these studies, a flow cytometry assay using GITR expressing CHO cells and recombinant GITRL was used to implement to assess blocking capacity. The GITR antibody, TRX-518, was used as a control for these studies.

[3] = biological target: T1, GITR expressed on CHO cells; assay: flow cytometry on GITR-expressing CHO cells, MFI-FL4; remark: listed apart in the source
[4] = biological target: T2, cyno GITR-CHO (cynomolgus monkey); assay: flow cytometry on cyno GITR-CHO cells
T2 construct: expressed on the surface of CHO cells, construct not described; also called cynomolgus GITR expressed on the surface of CHO cells

[5] = biological target: T3, human GITR-CHO (human, UniProt Q9Y5U5); assay: flow cytometry on human GITR-CHO cells
T3 construct: expressed on the surface of CHO cells, construct not described; also called human GITR expressed on the surface of CHO cells
T3 sequence (looked up): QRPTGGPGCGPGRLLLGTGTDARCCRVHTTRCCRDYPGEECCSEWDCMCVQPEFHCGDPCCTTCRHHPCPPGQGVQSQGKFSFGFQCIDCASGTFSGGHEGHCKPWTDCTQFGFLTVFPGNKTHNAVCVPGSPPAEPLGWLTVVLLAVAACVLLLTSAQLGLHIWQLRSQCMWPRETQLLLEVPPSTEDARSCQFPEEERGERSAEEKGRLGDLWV

[6] = biological target: T2, cyno GITR-CHO; assay: flow cytometry on cyno GITR-CHO cells; remark: listed apart in the source
[7] = biological target: T3, human GITR-CHO; assay: flow cytometry on human GITR-CHO cells; remark: listed apart in the source
[8] = biological target: T3, human GITR-CHO; assay: flow cytometry on human GITR-CHO cells; remark: listed apart in the source
[9] = biological target: T2, cyno GITR-CHO; assay: flow cytometry on cyno GITR-CHO cells; remark: listed apart in the source
[10] = biological target: T3, human GITR-CHO; assay: flow cytometry on human GITR-CHO cells; remark: listed apart in the source
[11] = biological target: T2, cyno GITR-CHO; assay: flow cytometry on cyno GITR-CHO cells; remark: listed apart in the source
[12] = biological target: T3, human GITR-CHO; assay: flow cytometry on human GITR-CHO cells; remark: listed apart in the source

- EC50 (read off the curve) [3]: ~2 nM
- IC50 (read off the curve) [2]: ~3 nM
B2: B3 (VHH, not shown: a dimerising Fc or GST)
VHH: QVQLVQSGGGLVQPGGSLRLICAASGSVFSIDSMSWFRQRPGNERELVALITGGRTTTYSDSVKGRFTISRASALNTVHLQMNSLKPEDTAVYYCNAALSTGWGRDASAYWGQGTQVTVS

- EC50 (read off the curve) [3]: ~1 nM
- IC50 (read off the curve) [2]: ~2 nM
B3: E2 (VHH, not shown: a dimerising Fc or GST; small tags and cut ends)
VHH: QVQLQESGGGLVQPGGSLRLSCAASGSVFSIDSMSWFRQAPGNERELVALITGGRTTTYADSVKGRFTISRASAPNTVYLQMNSLKPEDTAVYYCNAVVSTGWGRNADDYWGQGTQVTVS

- EC50 (read off the curve) [6]: ~2 nM
- EC50 (read off the curve) [7]: ~5 nM
B5: hzCC04v5.3 (VHH)
VHH: EVQLLESGGGEVQPGGSLRLSCAASGFTFSTHGMDWFRQAPGKDLEWVSAIQSGGSWTSYASSVKGRFTISRDNAKNTLYLEMSSLRAEDTAVYWCQNRVTRGQGTLVTV
notes: sheet prints hzCC04, text hzC04; also called hzC04v5.3

- EC50 (read off the curve) [6]: ~1 nM
- EC50 (read off the curve) [7]: ~4 nM
B7: hzCC04v5.4 (VHH)
VHH: EVQLLESGGGEVQPGGSLRLSCAASGFTFSTHGMDWFRQAPGKDLEWVSAIQSGGSWTSYASSVKGRFTISRDNAKNTLYLQMSSLRPEDTAVYWCQNRVTRGQGTLVTV
notes: sheet prints hzCC04, text hzC04; also called hzC04v5.4

- EC50 (read off the curve) [6]: ~2 nM
- EC50 (read off the curve) [7]: ~4 nM
B8: hzCC04v5.1 (VHH)
VHH: EVQLLESGGGEVQPGGSLRLSCAASGFTFSTHGMDWFRQAPGKDLEWVSAIQSGGSWTSYASSVKGRFTISRDNAKNTLYLEMNNLKPEDTAVYWCQNRVTRGQGTLVTV
notes: sheet prints hzCC04, text hzC04; also called hzC04v5.1

- binding result [8]: binds
B10: hzCC04v1 (VHH)
VHH: EVQLLESGGGEVQPGGSLRLSCAASGFTFSTHGMDWFRQAPGKDLEWVSAINNGGSWTSYASSVKGRFTISRDNAKNTLYLQMSSLRAEDTAVYWCQNRVTRGQGTLVTV
notes: sheet prints hzCC04v1; also called hzC04v1

- EC50 (read off the curve) [4]: ~2 nM
- EC50 (read off the curve) [5]: ~2 nM
B11: hzCC04v1.2.1 (VHH)
VHH: EVQLLESGGGEVQPGGSLRLSCAASGFTFSTHGMDWFRQAPGKDLEWVSAINQGGSWTSYASSVKGRFTISRDNAKNTLYLQMSSLRAEDTAVYYCQNRVTRGQGTLVTV
notes: also called hzC04v1.2.1

- EC50 (read off the curve) [11]: ~2 nM
- EC50 (read off the curve) [12]: 1 to 2 nM
B14: hzC06v3.7 (VHH)
VHH: EVQLLESGGGEVQPGGSLRLSCAASGSVFSIDAMGWYRQAPGKQRELVAVLSGISSAKYAASAPGRFTISRDAVKNTVYLQMSSLRAEDTAVYYCYADVSTGWGRDAHGYWGQGTLVTV

- EC50 (read off the curve) [3]: ~1 nM
- IC50 (read off the curve) [2]: ~1 nM
B19: F2 (VHH, not shown: a dimerising Fc or GST; small tags and cut ends)
VHH: QLVQSGGGLVQPGESLRLSCAASGSVFSIDSVSWFRQGPGNERELVALITGGRTTTYADSVKGRFTISRANAPNTVHLRMNSLKPEDTAVYYCNAAVSTGWGRNADDYWGQGTQVTVS

Second part, the binder before the results:

B1: F05 (VHH, not shown: a dimerising Fc or GST; small tags and cut ends)
VHH: QVQLVQSGGGLVQAGGSLRLSCTASGSIFSINHMAWYRQAPGKQREMVAHITGGASTKYADSVKGRFTISRDSALNTVSLRMNSLKPEDTAVYYCNAEVNEGWNADYYDVWGQGTQVTVSS
- EC50 (read off the curve) [1]: ~4 nM
- IC50 (read off the curve) [2]: ~4 nM

B4: hzCC04v5 (VHH)
VHH: EVQLLESGGGEVQPGGSLRLSCAASGFTFSTHGMDWFRQAPGKDLEWVSAIQSGGSWTSYASSVKGRFTISRDNAKNTLYLQMSSLRAEDTAVYWCQNRVTRGQGTLVTV
notes: also called hzC04v5
- EC50 (read off the curve) [4]: ~2 nM
- EC50 (read off the curve) [5]: ~3 nM

B6: hzCC04v1.2 (VHH)
VHH: EVQLLESGGGEVQPGGSLRLSCAASGFTFSTHGMDWFRQAPGKDLEWVSAINNGGSWTSYASSVKGRFTISRDNAKNTLYLQMSSLRAEDTAVYYCQNRVTRGQGTLVTV
notes: sheet prints hzCC04v1.2; also called hzC04v1.2
- binding result [8]: binds

B9: hzCC04v5.2 (VHH)
VHH: EVQLLESGGGEVQPGGSLRLSCAASGFTFSTHGMDWFRQAPGKDLEWVSAIQSGGSWTSYASSVKGRFTISRDNAKNTLYLQMNNLRAEDTAVYWCQNRVTRGQGTLVTV
notes: sheet prints hzCC04, text hzC04; also called hzC04v5.2
- EC50 (read off the curve) [6]: ~1 nM
- EC50 (read off the curve) [7]: ~4 nM

B12: hzC06v3.3 (VHH)
VHH: EVQLLESGGGEVQPGGSLRLSCAASGSVFSIDAMGWYRQAPGKQRELVAVLSGISSAKYAESVKGRFTISRDSAKNAVYLQMDGLKPEDTAVYYCYADVSTGWGRDAHGYWGQGTLVTV
- EC50 (read off the curve) [9]: ~5 nM
- EC50 (read off the curve) [10]: ~4 nM

B13: hzC06v3.6 (VHH)
VHH: EVQLLESGGGEVQPGGSLRLSCAASGSVFSIDAMGWYRQAPGKQRELVAVLSGISSAKYAESVKGRFTISRASAPNTVYLQMSSLRAEDTAVYYCYADVSTGWGRDAHGYWGQGTLVTV
- EC50 (read off the curve) [9]: ~4 nM
- EC50 (read off the curve) [10]: ~4 nM

B15: hzC06v3.9 (VHH)
VHH: EVQLLESGGGEVQPGGSLRLSCAASGSVFSIDAMGWYRQAPGKQRELVAVLSGISSAKYAASAPGRFTISRDNAKNTVYLQMSSLRAEDTAVYYCYADVSTGWGRDAHGYWGQGTLVTV
- EC50 (read off the curve) [11]: ~2 nM
- EC50 (read off the curve) [12]: 1 to 2 nM

B16: hzC06v3.10 (VHH)
VHH: EVQLLESGGGEVQPGGSLRLSCAASGSVFSIDAMGWYRQAPGKQRELVAVLSGISSAKYADAVKGRFTISRASAPNTVYLQMSSLRAEDTAVYYCYADVSTGWGRDAHGYWGQGTLVTV
- EC50 (read off the curve) [11]: ~2 nM
- EC50 (read off the curve) [12]: 1 to 2 nM

B17: hzC06v3.12 (VHH)
VHH: EVQLLESGGGEVQPGGSLRLSCAASGSVFSIDAMGWYRQAPGKQRELVAVLSGISSAKYAASAPGRFTISRASAPNTVYLQMSSLRAEDTAVYYCYADVSTGWGRDAHGYWGQGTLVTV
- EC50 (read off the curve) [11]: ~2 nM
- EC50 (read off the curve) [12]: 1 to 2 nM

B18: hzC06v3.4 (VHH)
VHH: EVQLLESGGGEVQPGGSLRLSCAASGSVFSIDAMGWYRQAPGKQRELVAVLSGISSAKYAESVKGRFTISRDNAKNTVYLQMSSLRAEDTAVYYCYADVSTGWGRDAHGYWGQGTLVTV
- EC50 (read off the curve) [9]: ~5 nM
- EC50 (read off the curve) [10]: ~4 nM

B20: C06 (VHH, not shown: a dimerising Fc or GST; small tags and cut ends)
VHH: QVQLQESGGGLVQAGGSLRLSCAASGSVFSIDAMGWYRLAPGQQRELVAVLNGISSAKYADSVKGRFTISGDSAKNAVYLQMDGLKPEDTAVYYCYADVSTGWGRDAHGYWGQGTQVTVSS
- EC50 (read off the curve) [1]: ~3 nM
- IC50 (read off the curve) [2]: ~2 nM

B21: 2A1 (VHH, not shown: a dimerising Fc or GST; small tags and cut ends)
VHH: EVQLVQSGGGLVQPGGSLRLSCAASGNIFSIDAMGWYRQAPGRQRELVAQIPGGPTDSVKGRFTVSGNSAKNTGYLQMNTLKPEDTAVYYCNIVASTSWGSPSKVYWGQGTQATVSS
- EC50 (read off the curve) [1]: ~10 nM
- IC50 (read off the curve) [2]: ~10 nM
